T1: MMRN2 overexpressed in HEK293T cells (human, UniProt Q9H8L6 23-949)
T1 construct: Used as cell lysate; also called full-length human MMRN2 with a His tag; hMMRN2; not shown: His tag (vector pHL-Avitag3)
T1 sequence: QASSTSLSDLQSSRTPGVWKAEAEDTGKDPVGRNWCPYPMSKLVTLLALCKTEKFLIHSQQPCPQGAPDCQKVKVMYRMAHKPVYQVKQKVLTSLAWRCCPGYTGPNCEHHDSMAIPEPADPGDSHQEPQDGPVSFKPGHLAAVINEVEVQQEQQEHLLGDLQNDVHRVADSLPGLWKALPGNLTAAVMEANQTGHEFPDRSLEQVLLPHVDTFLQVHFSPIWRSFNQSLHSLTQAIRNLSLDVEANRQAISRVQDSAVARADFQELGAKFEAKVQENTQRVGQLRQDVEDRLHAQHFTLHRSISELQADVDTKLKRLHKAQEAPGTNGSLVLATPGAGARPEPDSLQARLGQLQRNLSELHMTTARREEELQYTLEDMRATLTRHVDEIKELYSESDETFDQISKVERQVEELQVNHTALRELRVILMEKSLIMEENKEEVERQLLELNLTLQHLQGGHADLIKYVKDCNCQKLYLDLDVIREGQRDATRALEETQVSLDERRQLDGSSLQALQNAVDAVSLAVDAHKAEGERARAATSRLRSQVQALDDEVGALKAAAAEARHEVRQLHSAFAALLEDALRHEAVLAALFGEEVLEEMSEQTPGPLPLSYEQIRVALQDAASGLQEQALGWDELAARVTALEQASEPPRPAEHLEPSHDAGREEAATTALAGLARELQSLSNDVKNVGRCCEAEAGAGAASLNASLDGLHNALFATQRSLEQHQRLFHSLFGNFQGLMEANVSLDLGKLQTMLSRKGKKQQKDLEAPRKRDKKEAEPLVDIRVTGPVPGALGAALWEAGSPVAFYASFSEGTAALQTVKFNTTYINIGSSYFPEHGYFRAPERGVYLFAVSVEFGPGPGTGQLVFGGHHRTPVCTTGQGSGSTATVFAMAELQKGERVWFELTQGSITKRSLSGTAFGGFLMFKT

T2: human CLEC14A-ECD-Fc (human, UniProt Q86T13 22-396)
T2 construct: also called CLEC14A-Fc; hCLEC14A-Fc; not shown: human Fc tag from the pcDNA3-Fc plasmid
T2 sequence: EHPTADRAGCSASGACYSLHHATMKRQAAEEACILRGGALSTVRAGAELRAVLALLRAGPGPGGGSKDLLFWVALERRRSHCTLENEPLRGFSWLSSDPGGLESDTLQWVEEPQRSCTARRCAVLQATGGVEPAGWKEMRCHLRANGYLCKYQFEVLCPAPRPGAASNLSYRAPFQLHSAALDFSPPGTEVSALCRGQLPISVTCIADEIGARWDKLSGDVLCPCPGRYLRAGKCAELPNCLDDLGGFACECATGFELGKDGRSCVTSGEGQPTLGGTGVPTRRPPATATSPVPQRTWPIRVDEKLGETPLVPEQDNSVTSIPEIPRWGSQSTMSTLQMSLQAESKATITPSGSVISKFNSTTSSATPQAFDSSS

T3: human CLEC14A, full length (human, UniProt Q86T13 22-490)
T3 construct: also called CLEC14A on HUVECs (endogenous); CHO cells expressing full length human CLEC14A
T3 sequence: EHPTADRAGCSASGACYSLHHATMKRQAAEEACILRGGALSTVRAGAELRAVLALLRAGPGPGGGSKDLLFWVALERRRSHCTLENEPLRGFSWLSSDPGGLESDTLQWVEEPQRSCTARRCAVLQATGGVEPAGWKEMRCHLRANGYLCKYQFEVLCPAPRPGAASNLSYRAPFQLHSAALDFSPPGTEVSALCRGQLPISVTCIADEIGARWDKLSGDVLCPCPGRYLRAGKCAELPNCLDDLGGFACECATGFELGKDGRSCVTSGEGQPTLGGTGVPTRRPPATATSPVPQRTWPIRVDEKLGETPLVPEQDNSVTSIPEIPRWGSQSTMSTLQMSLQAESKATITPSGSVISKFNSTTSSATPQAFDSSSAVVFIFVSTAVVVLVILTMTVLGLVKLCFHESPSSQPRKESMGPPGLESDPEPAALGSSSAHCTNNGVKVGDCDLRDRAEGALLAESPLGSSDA

T4: murine CLEC14A-Fc (mouse, UniProt Q8VCP9 22-386, limits assumed)
T4 construct: Murine CLEC14A protein with a human Fc tag, made in HEK293T cells; also called CM; mCLEC14A-Fc; not shown: human Fc tag
T4 sequence (looked up): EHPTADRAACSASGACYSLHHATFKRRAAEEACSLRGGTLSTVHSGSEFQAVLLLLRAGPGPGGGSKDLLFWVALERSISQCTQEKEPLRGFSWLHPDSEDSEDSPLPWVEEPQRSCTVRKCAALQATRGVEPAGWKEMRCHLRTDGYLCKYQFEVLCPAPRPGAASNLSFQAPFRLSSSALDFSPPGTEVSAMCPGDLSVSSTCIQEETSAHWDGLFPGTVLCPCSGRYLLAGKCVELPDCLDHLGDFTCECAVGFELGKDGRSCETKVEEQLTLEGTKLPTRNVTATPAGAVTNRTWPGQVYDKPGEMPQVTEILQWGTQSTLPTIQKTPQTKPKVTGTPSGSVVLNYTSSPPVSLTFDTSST

T5: CLEC14A wild type with a C terminal GFP tag (human, UniProt Q86T13 22-490)
T5 construct: Expressed in HEK293T cells; GFP-positive cells gated; also called WT CLEC14A; not shown: C-terminal GFP tag
T5 sequence: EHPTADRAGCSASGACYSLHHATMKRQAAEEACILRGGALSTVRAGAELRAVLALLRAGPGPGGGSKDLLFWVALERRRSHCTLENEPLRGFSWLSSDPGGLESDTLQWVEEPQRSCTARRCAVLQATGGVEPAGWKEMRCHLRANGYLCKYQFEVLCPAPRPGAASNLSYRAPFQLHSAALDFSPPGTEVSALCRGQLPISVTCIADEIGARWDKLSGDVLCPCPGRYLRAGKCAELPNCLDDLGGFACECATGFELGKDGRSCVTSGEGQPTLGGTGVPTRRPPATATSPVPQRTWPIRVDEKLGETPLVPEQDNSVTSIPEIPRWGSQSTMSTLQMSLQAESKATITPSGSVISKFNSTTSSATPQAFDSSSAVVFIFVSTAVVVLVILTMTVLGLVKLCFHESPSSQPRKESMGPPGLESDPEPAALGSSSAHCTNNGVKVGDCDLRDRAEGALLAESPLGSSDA

B1: CLEC14A with regions 97-108 of CD141 (receptor)
chain: not shown
notes: also called this mutant

What was measured:
[1] = biological target: T1, MMRN2 overexpressed in HEK293T cells; test: far Western blot of lysates of transfected HEK293T cells, probed with MMRN2 protein lysate
Description: HEK293T cells were mock transfected or transfected with pCS2 vectors containing CLEC14A wild type (WT) or constructs with each major domain deleted (Δ) with an N-terminal HA tag. Upon far western blotting with MMRN2 protein lysate, binding can be seen in all mutants except those missing the C-type lectin domain (CTLD) or the sushi domain. An anti-HA blot was included to show all mutant proteins were expressed.

[2] = biological target: T2, human CLEC14A-ECD-Fc; test: pre-incubation of CLEC14A-ECD-Fc with antibody before MMRN2 pull-down
Description: Human CLEC14A-ECD-Fc was bound to protein A beads, blocked in 20% FCS and then incubated with each blocking condition. This was then added to lysates of HEK293T cells overexpressing full-length human MMRN2 with a His tag. Pre-incubating with CRT1, CRT4 and CRT5 decreased the levels of MMRN2 pulled down by CLEC14A-ECD-Fc.
To determine which CLEC14A monoclonal antibodies could inhibit the binding of MMRN2 to CLEC14A, CLEC14A-ECD-Fc was pre-incubated with increasing concentrations of mIgG1, or CR1-5, prior to incubation with lysates from HEK293T cells overexpressing MMRN2. Precipitates were then separated and probed for MMRN2 or CLEC14A-ECD-Fc. […] This confirms that antibodies C1, 4 and 5 bind CLEC14a on an epitope that is distinct from the one that C2 and 3 monoclonal antibodies bind and thus specifically block the MMRN2 interaction with CLEC14A.

[3] = biological target: T6, Chimera 6; test: flow cytometry, HEK293T Chimera 6 GFP, GFP-positive cells gated (R1); filled histogram is the control (files named IgG)
T6 construct: GFP fusion; also called CLEC14A with SUSHI of CD141; Sushi of thrombomodulin

[4] = biological target: T3, human CLEC14A, full length; test: fluorescent imaging of HUVECs treated with the drug conjugate of CRT3, 0 and 90 minutes by the legend
Description: HUVECs were treated with CRT-3 ADC and fluorescent imaging was carried out to determine the localisation of CRT-3 after 0 and 90 minutes. Further, the cytotoxicity was measured using a Cell Titre Glo luminescent cell viability assay and the results are shown in FIG. 18B. As described above, 1 million Lewis lung carcinoma cells were injected subcutaneously into the right flank of 2 mice and allowed to grow to a visible size. 1 mg/kg of CRT-3-ADC or B12-ADC (control) was administered through tail vein injections.

[5] = biological target: T4, murine CLEC14A-Fc; test: ELISA, hybridoma supernatant on absorbed antigen
[6] = biological target: T5, CLEC14A wild type with a C terminal GFP …; test: flow cytometry, HEK293T CLEC14A WT GFP, GFP-positive cells gated (R1); filled histogram is the control (files named IgG)
[7] = biological target: T7, wild type thrombomodulin with GFP tag (UniProt P07204 19-575); test: flow cytometry, HEK293T Thrombomodulin CD141 WT GFP, GFP-positive cells gated (R1)
T7 construct: whole, on cells; Expressed in HEK293T cells; also called WT CD141; CD141; not shown: C-terminal GFP tag
T7 sequence (P07204 19-575): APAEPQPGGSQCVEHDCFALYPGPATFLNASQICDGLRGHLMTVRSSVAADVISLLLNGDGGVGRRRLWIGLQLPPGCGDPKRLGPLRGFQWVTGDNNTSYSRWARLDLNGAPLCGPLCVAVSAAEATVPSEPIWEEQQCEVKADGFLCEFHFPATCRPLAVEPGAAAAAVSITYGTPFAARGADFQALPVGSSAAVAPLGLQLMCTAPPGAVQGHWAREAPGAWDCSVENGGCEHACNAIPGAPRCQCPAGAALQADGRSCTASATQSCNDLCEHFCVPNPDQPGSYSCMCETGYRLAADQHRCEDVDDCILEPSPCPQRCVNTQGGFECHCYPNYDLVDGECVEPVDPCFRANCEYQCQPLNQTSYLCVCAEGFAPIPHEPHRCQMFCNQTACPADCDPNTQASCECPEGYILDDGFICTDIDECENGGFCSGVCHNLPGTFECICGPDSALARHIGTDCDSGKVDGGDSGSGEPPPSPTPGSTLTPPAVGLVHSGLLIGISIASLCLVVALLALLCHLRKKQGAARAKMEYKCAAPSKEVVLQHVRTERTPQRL

[8] = biological target: T8, Chimera 5; test: flow cytometry, HEK293T Chimera 5 GFP, GFP-positive cells gated (R1)
T8 construct: GFP fusion; also called CLEC14A with CTLD of CD141; CTLD of thrombomodulin, rest CLEC14A
T8 sequence (chain, as listed by the source mutant limits assumed): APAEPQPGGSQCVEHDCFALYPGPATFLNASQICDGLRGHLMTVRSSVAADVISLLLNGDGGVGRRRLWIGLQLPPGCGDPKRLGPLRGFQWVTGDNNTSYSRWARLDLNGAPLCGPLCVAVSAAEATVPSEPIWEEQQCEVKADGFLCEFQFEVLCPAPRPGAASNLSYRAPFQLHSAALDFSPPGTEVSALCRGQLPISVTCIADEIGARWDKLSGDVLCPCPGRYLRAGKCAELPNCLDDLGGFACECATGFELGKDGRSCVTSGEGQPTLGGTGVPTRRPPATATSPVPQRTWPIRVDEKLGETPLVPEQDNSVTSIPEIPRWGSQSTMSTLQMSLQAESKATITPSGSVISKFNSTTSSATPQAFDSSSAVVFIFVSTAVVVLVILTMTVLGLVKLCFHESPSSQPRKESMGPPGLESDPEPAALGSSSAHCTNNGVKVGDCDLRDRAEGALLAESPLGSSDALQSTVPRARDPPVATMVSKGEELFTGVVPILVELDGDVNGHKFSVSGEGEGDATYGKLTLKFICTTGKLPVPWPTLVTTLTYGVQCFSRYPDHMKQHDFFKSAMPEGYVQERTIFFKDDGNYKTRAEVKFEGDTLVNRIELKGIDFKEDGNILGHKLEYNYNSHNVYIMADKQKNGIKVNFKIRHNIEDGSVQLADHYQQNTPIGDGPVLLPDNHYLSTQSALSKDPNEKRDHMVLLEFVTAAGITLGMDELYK

[9] = biological target: B1; test: flow cytometry, HEK293T 97-108 Chimera GFP, GFP-positive cells gated (R1)
[10] = biological target: T1, MMRN2 overexpressed in HEK293T cells; test: method for MMRN2 not described

binding result [1]	binding result [2]	binding result [3]	binding result [4]	binding result [5]	binding result [6]	binding result [7]	binding result [8]	binding result [9]	binding result [10]	Binder
binds										HA-CLEC14A (receptor, also called CLEC14A wild type (WT) with an N-terminal HA tag; not shown: N-terminal HA tag) EHPTADRAGCSASGACYSLHHATMKRQAAEEACILRGGALSTVRAGAELRAVLALLRAGPGPGGGSKDLLFWVALERRRSHCTLENEPLRGFSWLSSDPGGLESDTLQWVEEPQRSCTARRCAVLQATGGVEPAGWKEMRCHLRANGYLCKYQFEVLCPAPRPGAASNLSYRAPFQLHSAALDFSPPGTEVSALCRGQLPISVTCIADEIGARWDKLSGDVLCPCPGRYLRAGKCAELPNCLDDLGGFACECATGFELGKDGRSCVTSGEGQPTLGGTGVPTRRPPATATSPVPQRTWPIRVDEKLGETPLVPEQDNSVTSIPEIPRWGSQSTMSTLQMSLQAESKATITPSGSVISKFNSTTSSATPQAFDSSSAVVFIFVSTAVVVLVILTMTVLGLVKLCFHESPSSQPRKESMGPPGLESDPEPAALGSSSAHCTNNGVKVGDCDLRDRAEGALLAESPLGSSDA
	binds	binds	binds	binds	binds	no binding	no binding			CRT3 (antibody, IgG1, V domains shown, The VL entry ends with AAA from the cloning site; also called C3) VH: EVQLQQSGTVLARPGASVKMSCKASGYTFTSYWMHWVKQRPGQGLEWIGAIYPGNSDTSYNQKFKGKAKLTAVTSTSTAYMELSSLTNEDSAVFYCTHYYGSDYAMDYWGQGTSVTV VL: QIVLTQSPAIMSASLGERVTMTCTASSSVSSSYLHWYQQKPGSSPKLWIYSTSNLASGVPARFSGSGSGTSYSLTISSMEAEDAATYYCHQYHRSPRTFGGGTKLEIKR
	binds	binds		binds	binds	no binding	no binding	no binding		CRT1 (antibody, IgG1, V domains shown, also called C1; CR1) VH: EVQLQQSGAELMKPGASVKISCKATGYTFSSYWIEWVKQRPGHGLEWIGEILPGSGSTNYNEKFKGKATFTADTSSNTAYMQLSSLTSEDSAVYYCARGGDYDEEYYVMDYWGQGTSVTV VL: QIVLTQSPAIMSASPGEKVTMTCSASSSVSYMYWYQQKPGSSPRLLIYDTSNLASGVPVRFSGSGSGTSYSLTISRMEAEDAATYYCQQWSSYPLTFGAGTKLELKR
						no binding	no binding	no binding		CRT4 (antibody, IgG1, V domains shown, also called C4) VH: QVQLQQSGAELMKPGASVKISCKATGYTFSSYWIEWVNRRPGHGLEWIGEILPGSGSTNYNEKFKGKATFTADTSSNTAYMQLSSLTSEDSAVYYCARGGDYDEEYYLMDYWGQGTTLTVSS VL: QIVLTQSPAIMSASPGEKVTMTCSASSSVSYMYWYQQKPGSSPRLLIYDTSNLASGVPVRFSGSGSGTSYSLTISRMEAEDAATYYCQQWSSYPLTFGAGTKLEIKR
						no binding	no binding	no binding		CRT5 (antibody, IgG1, V domains shown, also called C5) VH: AEVQLQQSGAELMKPGASVKISCKATGYTFSSYWIEWVNQRPGHGLEWIGEILPGSGSTNYNEKFKGKATFTADTSSNTAYMQLSSLTSEDSAVYYCARGGDYDEEYYAMDYWGQGTSVTL VL: QIVLTQSPAIMSASPGEKVTMTCSASSSVSYMYWYQQKPGSSPRLLIYDTSNLASGVPVRFSGSGSGTSYSLTISRMEAEDGATYYCQQWSSYPLTFGAGTKLELKR
									no binding	B1
